According to patent US11220682B2 (SOGANG UNIVERSITY RESEARCH & BUSINESS DEVELOPMENT FOUNDATION, priority 2017, dated 2022):
Numbering of substitutions follows the chain as printed.

B1: DOPA-RS2 (protein)
chain: MDEFEMIKRNTSEIISEEELREVLEKDEKSALIGFEPSGKIHLGHYLQIKKMIDLQNAGFDIIILLSDLNAYLNQKGELDEIRKIGDYNKKVFEAMGLKAKYVYGSEFQLDKDYTLNVYRLALKTTLKRARRSMELIAREDENPKVAEVIYPIMQVNDIHYLGVDVLVGGMEQRKIHMLARELLPKKVVCIHNPVLTGLDGEGKMSSSKGNFIAVDDSPEEIRAKIKKAYCPAGVVEGNPIMEIAKYFLEYPLTIKRPEKFGGDLTVNSYEELESLFKNKELHPMDLKNAVAEELIKILEPIRKRL
modifications: Artificial DOPA_RS-2 Sequence
B2: DOPA-RS1 (protein)
chain: B1 chain with L167N
modifications: Artificial DOPA_RS-1 Sequence

Tests used:
Format in all cases: cell-based, E. coli
bacterial cell growth = experiment: Bacterial cell growth / cell density in growth medium
Description: The starter culture (2 mL) was transferred to a limiting medium (100 mL) (50 mM Na2HPO4, 50 mM KH2PO4, 50 mM (NH4)2504, 2 mM MgSO4, 0.1% trace metals, 0.5% glycerol, 0.05% glucose, and 5% amino acids, and pH 7.25) supplemented with ampicillin (100 μg/mL), chloramphenicol (35 μg/mL), 100 μM pyruvate, 10 mM catechol, and 300 μM DTT at 30° C. Protein expression was induced by adding 0.2% L-arabinose when the optical density reached 0.8, and the culture was cultured overnight at 30° C.
A simple solution was to maximize the concentrations of catechol, pyruvate, and ammonia in a growth medium. […] In the growth medium, 50 mM pyruvate and 25 mM ammonia were added as starting materials together with various concentrations (0 mM to 10 mM) catechol.

emGFP-E90DOPA = experiment: MALDI-TOF MS analysis of tryptic digest of emGFP-E90DOPA, specificity of incorporation; conditions: 3 mM L-DOPA, position 90
Description: A wild-type emGFP gene was obtained from commercially available sources by gene synthesis, amplified by PCR, and inserted between the BspHI and KpnI sites of pBAD/Myc-His (Invitrogen) to generate pBAD-emGFP (SEQ ID NO: 10). An amber codon (TAG) was incorporated at position 39 or 90 in the emGFP by site-specific mutants. A plasmid containing each amber codon was incorporated into E. coli DH10 used as a prokaryote host cell with pEvol-DOPA-RS1 (SEQ ID NO: 6), pEvol-DOPA-RS2 (SEQ ID NO: 7), or pEvol-DOPA-RS (SEQ ID NO: 8) to co-transform the E. coli DH10 (Comparative Example 1: […], Example 1: DOPA-RS1, Example 2: DOPA-RS2). Cells were amplified in an LB medium (lysogeny broth) supplemented with ampicillin (100 μg/mL) and chloramphenicol (35 μg/mL). […] Protein expression was induced by adding 0.2% L-arabinose when the optical density reached 0.8, and the culture was cultured overnight at 37° C. […] Protein concentrations were calculated by measuring absorbance at 280 nm and using the calculated extinction coefficient (2.2×10^4 cm^−1M^−1 for emGFP). […]
In order to express an emGFP-E90DOPA mutant, the expressed protein was purified, followed by tryptic degradation and then evaluated by MALDI-TOF (matrix-assisted laser desorption/ionization-time of flight) MS analysis (FIG. 2). […]

[1] = tested on: emGFP containing an amber mutation (TAG) at position 39 or 90; experiment: emGFP fluorescence from cytolysate, efficiency of genetic incorporation of L-DOPA; conditions: all L-DOPA concentrations (1 mM to 3 mM), positions 39 and 90 of emGFP
Description: A wild-type emGFP gene was obtained from commercially available sources by gene synthesis, amplified by PCR, and inserted between the BspHI and KpnI sites of pBAD/Myc-His (Invitrogen) to generate pBAD-emGFP (SEQ ID NO: 10). An amber codon (TAG) was incorporated at position 39 or 90 in the emGFP by site-specific mutants. A plasmid containing each amber codon was incorporated into E. coli DH10 used as a prokaryote host cell with pEvol-DOPA-RS1 (SEQ ID NO: 6), pEvol-DOPA-RS2 (SEQ ID NO: 7), or pEvol-DOPA-RS (SEQ ID NO: 8) to co-transform the E. coli DH10 (Comparative Example 1: […], Example 1: DOPA-RS1, Example 2: DOPA-RS2). Cells were amplified in an LB medium (lysogeny broth) supplemented with ampicillin (100 μg/mL) and chloramphenicol (35 μg/mL). […] Protein concentrations were calculated by measuring absorbance at 280 nm and using the calculated extinction coefficient (2.2×10^4 cm^−1M^−1 for emGFP).
Cells (2×10^9) were harvested by centrifugation at 10,000 rpm and 4° C. for 5 minutes, and cell pellets were lysed for 1 hour with Bugbuster (Novagen) (50 μL) supplemented with benzonase (Sigma) ([…]). The cytolysate was removed by centrifugation at 13,000 rpm and 4° C. for 10 minutes, and the supernatant was directly used for fluorescence measurement. Fluorescence was measured at 510 nm with excitation at 487 nm. […]

Molecule | toxicity (bacterial cell growth; 10 mM catechol) | concentration that inhibited bacterial cell growth (bacterial cell growth; preliminary test, growth medium) | incorporation of tyrosine (emGFP-E90DOPA) | efficiency in incorporation of L-DOPA (emGFP expression), rank order [1]
Oc1ccccc1O [catechol] | a reasonable toxicity was observed | more than 8 mM |  | 
B1 |  |  | not detected | DOPA-RS2>DOPA-RS1>DOPA-RS
B2 |  |  | not detected | DOPA-RS2>DOPA-RS1>DOPA-RS
